From IntAct's records for PubMed 24034250

B1: Apoptosis regulator Bcl-2 homolog (Murid herpesvirus 4 (MuHV-4)), P89884 (parent)
chain: MSHKKSGTYWATLITAFLKTVSKVEELDCVDSAVLVDVSKIITLTQEFRRHYDSVYRADYGPALKNWKRDLSKLFTSLFVDVINSGRIVGFFDVGRYVCEEVLCPGSWTEDHELLNDCMTHFFIENNLMNHFPLEDIFLAQRKFQTTGFTFLLHALAKVLPRIYSGNVIYV

Variants of: B1
Details: with becn1_human BECN1, Q14457
becn1_human BECN1, Q14457, sequence (Q14457 whole entry): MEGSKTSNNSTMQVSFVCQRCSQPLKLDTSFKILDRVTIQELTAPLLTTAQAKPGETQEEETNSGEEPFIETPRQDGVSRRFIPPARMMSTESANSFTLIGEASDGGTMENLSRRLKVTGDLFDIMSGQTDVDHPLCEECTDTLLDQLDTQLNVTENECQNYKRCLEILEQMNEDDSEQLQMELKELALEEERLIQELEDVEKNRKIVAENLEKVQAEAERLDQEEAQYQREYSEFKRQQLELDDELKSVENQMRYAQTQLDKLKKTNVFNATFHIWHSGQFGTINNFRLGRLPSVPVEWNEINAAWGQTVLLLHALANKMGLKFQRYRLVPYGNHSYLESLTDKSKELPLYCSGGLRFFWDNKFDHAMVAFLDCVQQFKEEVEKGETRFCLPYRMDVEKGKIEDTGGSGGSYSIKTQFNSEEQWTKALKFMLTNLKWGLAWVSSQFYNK

Variant	effect of a mutation on the interaction
S85A;G86A;R87A	decreasing interaction strength

Variants of: B1
Details: with bax_human BAX

Variant	effect of a mutation on the interaction
S85A;G86A;R87A	decreasing interaction strength
